Among the data in patent publication US20210292393A1 are median fluorescence intensity, fold over isotype control (fold over isotype) values, retold here.

The experiment addresses SARS-CoV-2 full length spike protein, V483A mutant (SARS-CoV-2), P0DTC2. The conditions noted are these: remark: other sources report otherwise.

B1: antibody 262 (antibody, V domains shown)
VH: QVQLVESGGGVVQPGRSLRLSCAASGFTFSSYAMHWVRQAPGKGLEWVAVISYDGSNKYYADSVKGRFTISRDNSKNTLYLQMNSLRAEDTAVYYCARDGGELLWFGELDYYGMDVWGQGTTVTVSS
VL: SYELTQPSSVSVSPGQTARITCSGDVLAKKYARWFQQKPGQAPVLVIYKDSERPSGIPERFSGSSSGTTVTLTISGAQVEDEADYYCYSAADNNRGVFGGGTKLTVL
Consider B1, for which the median fluorescence intensity, fold over isotype control (fold over isotype) is 1.63.
